Assay results published in the supplement of paper PMC9170038.

Tested on: MS2 coat protein
Experiment: apparent KD of MS2 coat protein; designed switch direction (-1 OFF switch, 1 ON switch): -1; higher = weaker reporter binding
How it was run: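 SNAP-549-labelled MS2 coat protein was titrated, doubling from 0.7 or 1.5 nM to 3 µM, over designed RNA switches transcribed on Illumina chips by stalled E. coli RNA polymerase. Runs were done without input, with 200 uM small-molecule ligand, or with an oligonucleotide input. Apparent KD is the per-design median over clusters of curve-fitted normalised fluorescence.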

[1] = input ligand: microRNA oligo, concentration not stated
[2] = Eterna round: R95, input ligand: microRNA oligo, concentration not stated
[3] = Eterna round: R95, input ligand: FMN 200 uM
[4] = Eterna round: R95, input ligand: none

Row | Sequence | apparent KD of MS2 coat protein (input ligand: FMN 200 uM) | apparent KD of MS2 coat protein (input ligand: none) | apparent KD of MS2 coat protein [2] | also measured
1 | UUAAUUUAAGGGAUAGAUCAUUACAUGAGGAUCACCCAUGUUGAGGAUAUCAGCUCGUUUAGAGCUGAGAAGGCAACAAUAGGG [ExNG3/14-A2] (Eterna round: R96, puzzle: Exclusion NG 3) | 58.9 nM | 163 nM | – | apparent KD of MS2 coat protein [1]: 60 nM
2 | UUAGAAAUGUUAGGAUAUUAAUAUUUUUUUAGUAUGAUCUACAUGAGGAUCACCCAUGUUAAAAUUAAGAAGGAACAUUUUAUU [JR_ExcNG2_Sub098] (Eterna round: R96, puzzle: Exclusion NG 2) | – | – | – | apparent KD of MS2 coat protein [1]: 59.7 nM
3 | UUAGAAUUGUUAGGAUAUUAAUUAUUGUAUAGUAUGAUCUACAUGAGGAUCACCCAUGUUAAAUAUAAGAAGGAACGUUAGAUU [JR_ExcNG2_Sub094] (Eterna round: R96, puzzle: Exclusion NG 2) | – | – | – | apparent KD of MS2 coat protein [1]: 42.3 nM
4 | UUAGAGUAAUAGGAUAUGCUACGUCACGGCUGUGCAGAAGGAUUAACAUGAGGAUCACCCAUGUGGUGAGUCCU [Eternabot (L1) Solution 31] (Eterna round: R97, puzzle: Exclusion 6) | 242 nM | 985 nM | – | –
5 | UUAGCGUAAGUAAGGAUAUGCUGGUCGAAAGAUCAGCAGAAGGUACAUGAGGAUCACCCAUGUGGAUUCGUUAU [Mod of JL 11 - Jieux - Brourd's mod of Exclusion 4] (Eterna round: R97, puzzle: Brourd's mod of Exclusion 4) | 73 nM | 27.5 nM | – | –
6 | UUAGGCUGAAGAUCAAUUAAUUAACAUGAGGAUCACCCAUGUAAGGAUAUCAGCUCGUGUAGAGCUGAGAAGGUACAUGCAGCC [ExNG3/18-A3] (Eterna round: R96, puzzle: Exclusion NG 3) | 436 nM | 101 nM | – | apparent KD of MS2 coat protein [1]: 135 nM
7 | UUAUAAAGAGUGAGGAUAUGCUGGUCCAUGGAUCAGCAGAAGGCACAUGAGGAUCACCCAUGUAAAAUAAUAUU [Mat - Exclusion 4 - JL Mod - D41] (puzzle: Brourd's mod of Exclusion 4) | – | – | 18.7 nM | –
8 | UUAUACGCUGAGGAUAUCAUCACUGAGAGGUGAUGAGAAGGCGGUACAUGAGGAUCACCCAUGUCUAUGGGCAG [Ex-6 Malc#21] (puzzle: Exclusion 6) | – | – | 187 nM | –
9 | UUAUACGCUGAGGAUAUCUUCACUGAAAAGUGAAGAGAAGGCGGUACAUGAGGAUCACCCAUGUCUAUGGGCAG [Ex-6 Malc#19] (puzzle: Exclusion 6) | – | – | 388 nM | apparent KD of MS2 coat protein [3]: 381 nM; apparent KD of MS2 coat protein [4]: 478 nM
10 | UUAUACGUUGAGGAUAUGCGACUUUUUUUAGUUGUAGAAGGCGAUACAUGAGGAUCACCCAUGUUUAUGGGCAU [LRO-Ex6-11] (puzzle: Exclusion 6) | – | – | 137 nM | –
11 | UUAUAUAAUGUGAGGAUAUGCUGGUCCUUAGAUCAGCAGAAGGCACAUGAGGAUCACCCAUGUAGUAAAUUUUA [Mat - Exclusion 4 - JL Mod - D11] (puzzle: Brourd's mod of Exclusion 4) | – | – | 15.3 nM | apparent KD of MS2 coat protein [3]: 25 nM; apparent KD of MS2 coat protein [4]: 16.8 nM
12 | UUAUAUAGAGUGAGGAUAUGCUGGUCCUUGGAUCAGCAGAAGGCACAUGAGGAUCACCCAUGUAAUAUAUUAUU [Mat - Exclusion 4 - JL Mod - D37] (puzzle: Brourd's mod of Exclusion 4) | – | – | 21.1 nM | –
13 | UUAUGUAAUGUAGGAUAUCGGUCAGUUUCUGAUCGAGAAGGACAUGAGGAUCACCCAUGUAAGGCUACCGGUUUCUGGUGGCCU [JL ENG1 3.51] (Eterna round: R96, puzzle: Exclusion NG 1) | 137 nM | 28.5 nM | – | apparent KD of MS2 coat protein [1]: 20.7 nM
14 | UUAUUACAAGCAAGAUCUCACAUGAGGAUCACCCAUGUGCUCGUCUUAUAAGGUACUGUGACGAAAGUCACGGUACC [Eli 100 v1] (Eterna round: R97, puzzle: Sensor, turn-off variant 1) | 14.8 nM | 17.3 nM | – | –
15 | UUAUUACGAGGAUAUCGUUUUUAUCACAUGAGGAUCACCCAUGUAAUUUAUGUUUCGUUUCGAGAAGGCGUUUGUU [JR_E5_Sub067] (puzzle: Exclusion 5) | – | – | 23.3 nM | –
16 | UUAUUAUAUGAAGGAUAUACUUAACAUGAGGAUCACCCAUGUGGUGUUGUGAGUGAGUGAGUUUAGUAGAAGGUCAAGUAUUUU [JMF's solution 51] (Eterna round: R96, puzzle: Exclusion NG 2) | 417 nM | 341 nM | – | apparent KD of MS2 coat protein [1]: 494 nM
17 | UUAUUAUAUGUAGGAUAUGCAUAUUAUUAUUAUGCAGAAGGACAUGAGGAUCACCCAUGUAUAUUAUUAUUAUAUAUUAUAUAU [Title] (Eterna round: R96, puzzle: Exclusion NG 1) | – | – | – | apparent KD of MS2 coat protein [1]: 23.6 nM

Row | Sequence | apparent KD of MS2 coat protein (input ligand: FMN 200 uM) | apparent KD of MS2 coat protein (input ligand: none) | apparent KD of MS2 coat protein [2] | also measured
18 | UUAUUAUAUGUAGGAUAUGCAUAUUAUUAUUAUGCAGAAGGACAUGAGGAUCACCCAUGUAUAUUGUUGUUAUGUAUUAUAUAU [Title] (Eterna round: R96, puzzle: Exclusion NG 1) | 40.4 nM | 31.3 nM | – | apparent KD of MS2 coat protein [1]: 24.1 nM
19 | UUCACAUGGACAUGAGAUCACAUGAGGAUCACCCAUGUGAAUAACAAGCUUUUUGCUCGUCUUAUGUCCAAUAAUAG [Stov1/14-C2] (Eterna round: R97, puzzle: Sensor, turn-off variant 1) | 13.7 nM | 12.6 nM | – | –
20 | UUCAGACAUGAGGAUCACCCAUGUGAGGAUAUGAUGCGAUCGUCGAAAGACGAUAGCAUCAGAAGGCACGUAUG [Fiskers Ex 1 - 16] (puzzle: Exclusion 1) | – | – | 97.8 nM | –
21 | UUCAGACAUGAGGAUCACCCAUGUGAGGAUAUGAUGCGAUCGUCGAAAGACGAUAGCAUCAGAAGGUACAAAUG [Fiskers Ex 1 - 19] (puzzle: Exclusion 1) | – | – | 61 nM | –
22 | UUCAGUCAUCCUUAUUCUUACAUGAGGAUCACCCAUGUUUGUUUAAUUAAGUUUUGUAAGUUUGUUGUUCGUUUUAU [JR_STOV1_v2_Sub073] (Eterna round: R97, puzzle: Sensor, turn-off variant 1) | 47.9 nM | 50.3 nM | – | –
23 | UUCAUGUGAGGAUAUAGUACUCCUUCUAUUAUUAUUGAGUAUUAGAAGGCACAUGAGGAUCACCCAUGUAGUAC [Ex4 - 3 - 40] (puzzle: Exclusion 4) | – | – | 24.3 nM | –
24 | UUCCACGAUGUCAGGAUAUGUAGGGCCGCUGCUAGGCAGAAGGGACAUGAGGAUCACCCAUGUACUGACUACUG [Eternabot (L2) Solution 84] (Eterna round: R97, puzzle: Brourd's mod of Exclusion 4) | 78.2 nM | 69.6 nM | – | –
25 | UUCCGCCUAGGAUAUUGGAUACUCUACAUGAGGAUCACCCAUGUGAGCAUGAAAGAUAUCCAAGAAGGAGGUAGCC [Eternabot (L2) Solution 68] (Eterna round: R97, puzzle: Exclusion 5) | 16.7 nM | 14.6 nM | – | –
26 | UUCCGGCGUGUAGGAUAUGGUUCCGUUUCGGUUCCAGAAGGACAUGAGGAUCACCCAUGUGCCUGUCGUCGGUCGUCACCGGGC [salish99_ExNG1_r04_219] (Eterna round: R96, puzzle: Exclusion NG 1) | 22.3 nM | 15.3 nM | – | apparent KD of MS2 coat protein [1]: 13.3 nM
27 | UUCCUACAUGAGGAUCACCCAUGUCAGGAUAUAUAAAACGCUCUGGUAAUAGAGCAAGAUAGAAGGGAUUGGGA [Beeratve] (Eterna round: R97, puzzle: Exclusion 1) | 14.6 nM | 13.3 nM | – | –
28 | UUCCUACAUGAGGAUCACCCAUGUCAGGAUAUCUCCUCGUCGCCAAUGGGCGACGAAUAGAGAAGGGACAGGAA [Rerizaatra] (puzzle: Exclusion 1) | – | – | 13.1 nM | –
29 | UUCCUCAUAACAUGAGGAUCACCCAUGUAUUAUUUGAUAACUGAGGAUAUACUUUUAAUGUUUAUGUAGAAGGCAGAUACAGUU [JR_ExcNG3_Sub016] (Eterna round: R96, puzzle: Exclusion NG 3) | – | – | – | apparent KD of MS2 coat protein [1]: 89.6 nM
30 | UUCCUCGUUGUGAGGAUAUCGUCCGGGUUUUGUUACGAGAAGGCACAUGAGGAUCACCCAUGUUACUUGAUGUU [JR_BMOE4_Sub072] (puzzle: Brourd's mod of Exclusion 4) | – | – | 20 nM | –
31 | UUCCUCGUUGUGAGGAUAUCGUCCGUGUUUUGUUACGAGAAGGCACAUGAGGAUCACCCAUGUUUUUUGUUUUU [JR_BMOE4_Sub075] (puzzle: Brourd's mod of Exclusion 4) | – | – | 40 nM | –
32 | UUCCUCGUUGUGAGGAUAUCGUCCUCUUUUUGUUACGAGAAGGCACAUGAGGAUCACCCAUGUUUCUUGAUGUU [JR_BMOE4_Sub070] (puzzle: Brourd's mod of Exclusion 4) | – | – | 16.7 nM | –
33 | UUCCUGUCAGGAUAUGACUAGAUGCACGAAAGUGUGUUUACUUAGAAGGGACAUGAGGAUCACCCAUGUAGUCC [Bring Us a Shrubbery-17] (puzzle: Exclusion 4) | – | – | 31.3 nM | –
34 | UUCCUGUCAGGAUAUGACUAGAUGCACGAAAGUGUGUUUAGUUAGAAGGGACAUGAGGAUCACCCAUGUAGUCC [Bring Us a Shrubbery-18] (puzzle: Exclusion 4) | – | – | 20.9 nM | –
